Publication PMC8600398

What was measured:
[1] = biological target: T1, 6His-CRP (cAMP receptor protein) (Escherichia coli (K-12 MG1655?)) (UniProt P0ACJ8); assay: EMSA; conditions: 10 mM Tris-HCl pH 7.5, 50 mM NaCl, 5 mM MgSO4, 1 mM DTT, 1 mg/ml BSA, 200 uM cAMP, 10% glycerol, 12 ug/ml poly(dI-dC), 5 nM DNA, 37 C 15 min; 5% PAGE 0.25X TBE …
T1 sequence: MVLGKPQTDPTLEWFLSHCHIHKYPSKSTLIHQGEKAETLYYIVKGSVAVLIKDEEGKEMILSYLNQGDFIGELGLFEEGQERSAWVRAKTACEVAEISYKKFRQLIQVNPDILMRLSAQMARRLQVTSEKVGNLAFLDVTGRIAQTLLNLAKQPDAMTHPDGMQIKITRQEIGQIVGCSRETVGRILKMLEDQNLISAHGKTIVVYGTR

[2] = tested on: 6His-CRP (cAMP receptor protein) (Escherichia coli (K-12 MG1655?)); assay: EMSA; conditions: 10 mM Tris-HCl pH 7.5, 50 mM NaCl, 5 mM MgSO4, 1 mM DTT, 1 mg/ml BSA, 200 uM cAMP, 10% glycerol, 12 ug/ml poly(dI-dC), 5 nM DNA, 37 C 15 min; 5% PAGE 0.25X TBE …

| Substance | binding [1] | Kd [2] [nM] |
| --- | --- | --- |
| GCCTACCGCATCCGCTTGCGTATCGACGGCGTATTGCATCCTTTACCGGATGTTTCACCGGATGCCGGAGTCGCATTAACCGCCAGATTAAAAGTGCTGGGAAACCTGG (double strand) | no binding | – |
| ytfK promoter region -515/+3 | – | 25 |
